From IntAct's records for PubMed 16834335

B1: Modulator of FtsH protease HflC (Escherichia coli (strain K12)), P0ABC3 (parent)
chain: MRKSVIAIIIIVLVVLYMSVFVVKEGERGITLRFGKVLRDDDNKPLVYEPGLHFKIPFIETVKMLDARIQTMDNQADRFVTKEKKDLIVDSYIKWRISDFSRYYLATGGGDISQAEVLLKRKFSDRLRSEIGRLDVKDIVTDSRGRLTLEVRDALNSGSAGTEDEVTTPAADNAIAEAAERVTAETKGKVPVINPNSMAALGIEVVDVRIKQINLPTEVSEAIYNRMRAEREAVARRHRSQGQEEAEKLRATADYEVTRTLAEAERQGRIMRGEGDAEAAKLFADAFSKDPDFYAFIRSLRAYENSFSGNQDVMVMSPDSDFFRYMKTPTSATR
partner: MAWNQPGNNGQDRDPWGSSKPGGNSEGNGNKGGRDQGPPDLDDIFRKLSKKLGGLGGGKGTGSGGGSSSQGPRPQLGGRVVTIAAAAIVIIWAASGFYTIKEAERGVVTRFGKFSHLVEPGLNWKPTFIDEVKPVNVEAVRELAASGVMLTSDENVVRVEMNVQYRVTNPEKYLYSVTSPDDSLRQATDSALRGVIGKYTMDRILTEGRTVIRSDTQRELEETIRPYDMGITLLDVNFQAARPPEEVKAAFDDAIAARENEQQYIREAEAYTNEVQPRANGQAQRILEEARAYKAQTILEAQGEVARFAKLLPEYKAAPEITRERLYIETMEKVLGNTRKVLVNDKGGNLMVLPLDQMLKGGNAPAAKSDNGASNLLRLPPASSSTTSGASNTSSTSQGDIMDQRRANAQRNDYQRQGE

Variants of: B1
Conditions: with hflk_ecoli hflK

Row | effect of a mutation on the interaction | Variant
1 | decreasing interaction strength | A286I
